# Where no end group is shown, it is not given here. The star is where a group is joined. FITC = O=C1OC2(c3ccc(O)cc3Oc3cc(O)ccc32)c2ccc(NC(=S)*)cc21
# T1: GST-tagged GluK1 N72-137 region (rat, UniProt P22756 72-137)
# T1 chain: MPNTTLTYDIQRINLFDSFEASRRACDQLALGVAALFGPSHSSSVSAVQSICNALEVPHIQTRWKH
# T2: GST-tagged GluK1 ATD (rat)
# T2 chain: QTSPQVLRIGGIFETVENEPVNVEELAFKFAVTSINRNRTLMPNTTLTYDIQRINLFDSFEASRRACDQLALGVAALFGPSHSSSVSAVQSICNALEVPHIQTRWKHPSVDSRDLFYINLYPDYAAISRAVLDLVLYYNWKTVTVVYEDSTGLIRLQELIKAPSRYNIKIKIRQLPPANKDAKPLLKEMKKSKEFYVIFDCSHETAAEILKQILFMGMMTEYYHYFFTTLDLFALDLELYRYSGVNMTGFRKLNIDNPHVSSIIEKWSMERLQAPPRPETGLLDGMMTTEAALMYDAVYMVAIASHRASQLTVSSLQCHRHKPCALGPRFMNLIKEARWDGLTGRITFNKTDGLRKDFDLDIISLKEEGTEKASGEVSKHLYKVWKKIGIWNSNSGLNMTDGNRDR
# T3: GST-tagged GluK2 region corresponding to GluK1 N72-137 (rat, UniProt P42260 71-136)
# T3 chain: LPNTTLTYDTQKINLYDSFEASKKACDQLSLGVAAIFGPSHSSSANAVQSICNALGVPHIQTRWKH
# T4: GST-tagged GluK2 ATD (rat)
# T4 chain: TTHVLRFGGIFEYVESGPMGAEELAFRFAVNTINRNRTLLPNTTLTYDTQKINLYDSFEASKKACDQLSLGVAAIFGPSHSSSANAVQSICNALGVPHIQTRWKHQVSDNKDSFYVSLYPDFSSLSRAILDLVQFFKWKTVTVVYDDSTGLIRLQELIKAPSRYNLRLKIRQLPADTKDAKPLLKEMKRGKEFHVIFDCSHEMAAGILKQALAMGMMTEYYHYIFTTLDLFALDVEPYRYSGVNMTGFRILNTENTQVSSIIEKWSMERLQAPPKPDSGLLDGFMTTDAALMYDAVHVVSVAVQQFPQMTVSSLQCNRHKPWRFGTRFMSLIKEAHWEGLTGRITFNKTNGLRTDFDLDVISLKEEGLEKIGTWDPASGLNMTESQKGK
# Legend:
# Test in all cases: FP
# [1] = target: T1, GST-tagged GluK1 N72-137 region
# [2] = target: T2, GST-tagged GluK1 ATD
# [3] = target: T3, GST-tagged GluK2 region corresponding …
# [4] = target: T4, GST-tagged GluK2 ATD
binder,measurement,setting,value
{FITC}-MERSTVLIQPGLWTRDTSWTLLYFLCYILP [FITC-labelled GluK1 signal peptide],Kd,[1],14.1 µM
same,Kd,[2],13.7 µM
same,Kd,[3],36.3 µM
same,Kd,[4],35.7 µM
